Experimental data as given in the supplement of paper PMC9170038.

Test system: K4 kissing-loop RNA reporter
Assay: apparent KD of K4 kissing-loop reporter; higher = weaker reporter binding
Settings: Eterna round: R107
Method: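 RNA-MaP round R107: designed RNA switches with theophylline, tryptophan, arginine or FMN aptamers are transcribed on-chip within common flanks. They are titrated with a labelled K4 kissing-loop RNA reporter in RNA-MaP buffer (100 mM Tris pH 7.5, 80 mM KCl, 4 mM MgCl2), without ligand or with the indicated ligand. Median apparent KD per design.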

[1] = input ligand: theophylline 20 uM
[2] = input ligand: tryptophan 2.4 mM
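Further: bound reporter read as fluorescence of individual clusters on recovered sequencing chips by microscopy, with normalized cluster intensities fitted with a binding model.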

Sequence | apparent KD of K4 kissing-loop reporter (input ligand: FMN 200 uM) | apparent KD of K4 kissing-loop reporter (input ligand: arginine 13.2 mM) | apparent KD of K4 kissing-loop reporter (input ligand: none) | apparent KD of K4 kissing-loop reporter [1] | apparent KD of K4 kissing-loop reporter [2]
UGUCAUUGGUCGGCCGCCACUAGGACCGGGACUUCUCUAGUGAUGUUAGUCUGGUCGGCCGCCACUAGGACCGGGACCGAUGACU [KL-SSTryp-B14 #DoubleAptamer] | 561 nM | 368 nM | 671 nM | 327 nM | 103 nM
AAAUUUAUAUUAGAUACCAGCAAAUUGAAAGUUUAUUAUGACAAGAGUGAUGUUCUUGUAUGCCCUUGGCAGCUGGUAUGGGUUU [KL-XTheo-B26] | 112 nM | 106 nM | 120 nM | 111 nM | 108 nM
GGAUAGGAUAGAGGAUAUGGAAAACACAGAAGUGACUUGUUGUGUUUAUCCAUAGGGAGUGAUGUUCCAGAAGGCUGUCCUAUCG [MatMod 22 - Jieux - Exclusion - FMN B] | 333 nM | 206 nM | 206 nM | 230 nM | 154 nM
UUUUAGGUAUCUGAUACCAGAGAAAAUAUAUGUAGUGAUGUUAUAUACAAAAUAAUUAAGCUCCCUUGGCAGCAGUAUUAAUUUU [AstrosExc-TheB#3] | 825 nM | 742 nM | 854 nM | 917 nM | 717 nM
GUACGCUCUCGAGUGAUGUUCGGUAAUCCUUAGGAUAUCGCUUUUGCGAGAAGGAAGGGAAUGAGGAAACUCGUUCUGAGUGUAC [FMN A 21] | 523 nM | 299 nM | 366 nM | 481 nM | 743 nM
UAGUCUCGAGUCUGAGAUUACGGGUCAGAUACCAGACUAGAGAUAGUCCCUUGGCAGCUGAAGUUCAGUGAUGUUGAACGGAUUA [Theo B SS t10a] | 501 nM | 394 nM | 441 nM | 510 nM | 377 nM
CAUACGCAUGGAGGAUAUGAGAUUACUCAUAUCAUUUAAUAUUCUCAGUGAUGUUGAGAUUUGGGCUCAGAAGGCCAUGUGUAUG [Ex FMN B 15] | 479 nM | 304 nM | 339 nM | 343 nM | 317 nM
GCGAGUUUGCAAGGAUAUCGACCGUCGUACGACCAGUGAUGUUGGGAGUACUUUCAAAAUCGAUUUCGAGAAGGUGCUGGCAUCA [theeternabot_sameState_KL_FMN_B_12] | 271 nM | 212 nM | 250 nM | 248 nM | 234 nM
AAUGUACAAGUGAUGUUUGUACUUUCCGAAGGAGCGUCUAAUAAGACAGGUAGGUCGCGGAUUAUCAUAAUUAUCAGGUUUUCAA [JR_SSArginiA_Sub015] | 98.8 nM | 88.8 nM | 92.4 nM | 89.1 nM | 90.9 nM
GCGCGUCAUGUCAGCGGUGACUACGUCGAUACCAGCAGGGAAACCUGCCCUUGGCAGCGACGCGCUGGAGUGAUGUUCCGACGGA [#2 Exclusion - Theophylline A Attempt #6 (HarryS)] | 434 nM | 431 nM | 544 nM | 854 nM | 442 nM
GCUAUGGUAGGAAGGAGCGCUUAUUUAUUUUUAAGAGUGAUGUUCGUUAGUAGAUAGUUAAAGCAGGUAGGUCGCCUACUAUAGC [Arginine B K4 15] | 146 nM | 177 nM | 171 nM | 161 nM | 100 nM
ACGGGCGGCUGAAGGAGCGGGCGGGCCCGAGUGAUGUUCGGGUGGGCCGUGAGGCCCGGAGCCCAGGUAGGUCGCGGUUCCGUCC [#2 Same State - Arginine B Attempt #21 (HarryS)] | 135 nM | 104 nM | 182 nM | 171 nM | 164 nM
AAUAUAUAGUGAAGGAGCGCGAUAAGCAGUGAUGUUGCUUUGUUAUGAUUGUCUAUUUUUACGCAGGUAGGUCGCACUAUAUAUA [JR_ExcArginiB_Sub020] | 165 nM | 104 nM | 126 nM | 109 nM | 122 nM
AGAGGAAAUAGAAGGAGCGGCGCCAGUGAUGUUGGAUGCCGCGGGUGAAUCAGGUCAUAGUGCCAGGUAGGUCGCUAUUUCAGCG [Larebeve] | 177 nM | 112 nM | 141 nM | 161 nM | 138 nM
GCAGGACGAGGAGGAGGAUGAAUUACUGAAGGAGCGCAUAUGGUUGCAGGUAGGUCGCGGUAAACAAGUAUAGUGAUGUUAUAUC [SSArgA.P] | 913 nM | 586 nM | 552 nM | 621 nM | 584 nM
GCCGUAGAUGGAAGGAGCGUGUCAAAGUGAUGUUUUGAUUAACUCCCUAAGGGAUAGAUGACACAGGUAGGUCGCCAUCUACGGC | 74.5 nM | 63.5 nM | 74.3 nM | 102 nM | 63.3 nM

Sequence | apparent KD of K4 kissing-loop reporter (input ligand: FMN 200 uM) | apparent KD of K4 kissing-loop reporter (input ligand: arginine 13.2 mM) | apparent KD of K4 kissing-loop reporter (input ligand: none) | apparent KD of K4 kissing-loop reporter [1] | apparent KD of K4 kissing-loop reporter [2]
GCGCGUCAUGUCGGCGGUGACUACGCCGAUACCAGCCGGGAAACCGGCCCUUGGCAGCGGCGCGCCGGAGUGAUGUUCCGACAGA [#2 Exclusion - Theophylline A Attempt #3 (HarryS)] | 126 nM | 205 nM | 190 nM | 359 nM | 109 nM
UUUAUAUAGUCGGCCGCCACUGAUUUUUAUAUAUGUUUAUGUUUAUACGAGUGAUGUUCGUUAUUCAGGACCGGGACUUUUGUUA [JR_SSTryptoB_Sub016] | 108 nM | 133 nM | 109 nM | 117 nM | 102 nM
AGCUCAGAGUGACUCGAUAAGAGUCACAAACGAGGACCGGUACGGCCGCCACUCGAAAUAACGAGAGUGAUGUUCUCGCUGAGCA [#SwitchBubble 1 #StaticStem #K4Late] | 1160 nM | 517 nM | 1000 nM | 285 nM | 340 nM
AACAGCAAUGCGGCCGCCACUUCGAGUUCAGUGAUGUUGAAAGAAUUAAAUAAAGAUCCCAAGAGGAGGACCGGGCAGUGCUGUU [Default title] | 596 nM | 448 nM | 530 nM | 621 nM | 418 nM
CGCAGUGAUGUUGCGAAUAUAAUCACGGAAGGAGCGCGUGAAAACGCAGGUAGGUCGCCGUGUGGUAUGAUGGAAACAUCGUACC [Arginine A K4 12] | 222 nM | 207 nM | 243 nM | 206 nM | 191 nM
GGAUUGCGUUCGGCCGCCACUAGACUACAUUCCACGCCCGACCCGUUUUUAAGUGAUGUUUAAACUAGGACCGGGAACCGAUUUC [theeternabot_exclusion_KL_Trp_B_33] | 435 nM | 291 nM | 395 nM | 388 nM | –
UUAUUGAGCGUUUGUGAGAAGGCGUUCUUCAAGGAUAUCGACGUAACGAGAAGGUGAUUCGUUCCGAGUGAUGUUCGGUACGGGC [theeternabot_sameState_KL_FMN_A_4] | 222 nM | 185 nM | 234 nM | 240 nM | 199 nM
GGGAGUAGUGCGGCCGCCACUGAGAAAGAAGAAGAAUAUAGUGAUGUUAUGUAGGAAAGGAAGAACAGGACCGGGCAUUAGAUUU [SSTRyptB.G] | 455 nM | 432 nM | 477 nM | 387 nM | 270 nM
ACGUAGUACGUAGGAUAUCAGAGAUCAGUUAGUGAGAUCGAGUGAUGUUCGAUCAAGUGUUCAUUUUGAGAAGGAUGUAGUAGGA [KL-SSFMN-B7] | 263 nM | 320 nM | 387 nM | 428 nM | 238 nM
GUUCGGAUGCGGGAUACCAGCGUACCGAGCAAGCUUCGGGUAGUGAUGUUAUCUGAAUUACGCCCUUGGCAGCCCGCAUCCGGGC [clock_plus] | 265 nM | 234 nM | 285 nM | 212 nM | 256 nM
UGUGUUUACCUGACUCAGUGAUGUUGAGAAGGAGCGUGCAAAGGCACAGGUAGGUCGCUCAACCUAAAUUCAGGUGAGCACUAAA | 246 nM | 331 nM | 240 nM | 310 nM | 217 nM
GACUCAUGUAGAAGGAGCGUCAGAAGCUACAGACAUGAGUGAUGUUCAUGUUAGUUGAUCUGACAGGUAGGUCGCUACAGCAGGA [KL-SSArg B14 #analogue] | 145 nM | 121 nM | 149 nM | 141 nM | 150 nM
GCUAUGGUAGGAAGGAGCGCUUAUUCAUUAAUAAGAGUGAUGUUCGAUAAUGAAUAUUUAUAGCAGGUAGGUCGCCUACUAUAGC [Arginine B K4 2] | 300 nM | 223 nM | 230 nM | 206 nM | 237 nM
UGUAUGUGAUUUGAUACCAGACCAGCUGGUGGUGUAUGAGUGAUGUUCAUGUUGGUUUGGGUCCCUUGGCAGCAAAUCGCAUACU [KL-SSTheoB30] | 14.5 nM | 7.4 nM | 11.8 nM | 8.88 nM | 11.7 nM
GAACGGCGGGCGGCCGCCACUGGUAUACGAGUGAUGUUCGGAUAUACGUGAUGUAAGGUAAUUAACAGGACCGGGUCAGGGCCGG [whbob_SS_Tryp_B_t20] | 278 nM | 208 nM | 239 nM | 294 nM | 238 nM
GCCAGGCAUCUGCAGAGUGAUGUUCAAAAGCGAGGACCGGUACGGCCGCCACUCGAAAGCAGAUGCCUGGGCGUACAAAGUACGC [idea] | 1140 nM | 262 nM | 984 nM | 562 nM | 899 nM
